Experiments:
Cren7 K48Q K48Q = target: T1, Cren7 K48Q K48Q (UniProt C3NHU3); assay: DNA-cellulose pull-down (bridging); details: BLI: 20 mM Tris-HCl pH 6.8, 100 mM KCl, 1 mM EDTA, 0.05% Tween-20, 30°C; pull-down: 10 mM HEPES pH 7.6, 100 mM KCl, 2.5 mM MgCl2, 0.1 mg/mL BSA, room …
T1 sequence: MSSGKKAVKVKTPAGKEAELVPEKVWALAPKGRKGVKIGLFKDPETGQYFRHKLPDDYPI

Cren7 K31Q K31Q = target: T2, Cren7 K31Q K31Q (UniProt C3NHU3); assay: DNA-cellulose pull-down (bridging); details: BLI: 20 mM Tris-HCl pH 6.8, 100 mM KCl, 1 mM EDTA, 0.05% Tween-20, 30°C; pull-down: 10 mM HEPES pH 7.6, 100 mM KCl, 2.5 mM MgCl2, 0.1 mg/mL BSA, room …
T2 sequence: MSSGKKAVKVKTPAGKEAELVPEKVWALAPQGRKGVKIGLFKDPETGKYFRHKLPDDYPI

[1] = target: T3, Cren7WT (native, methylated) (Sulfolobus islandicus E234) (UniProt C3NHU3); assay: DNA-cellulose pull-down (bridging); details: BLI: 20 mM Tris-HCl pH 6.8, 100 mM KCl, 1 mM EDTA, 0.05% Tween-20, 30°C; pull-down: 10 mM HEPES pH 7.6, 100 mM KCl, 2.5 mM MgCl2, 0.1 mg/mL BSA, room …
T3 sequence: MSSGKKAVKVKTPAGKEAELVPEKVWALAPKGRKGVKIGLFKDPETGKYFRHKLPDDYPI

Cren7 K42Q K42Q = target: T4, Cren7 K42Q K42Q (UniProt C3NHU3); assay: DNA-cellulose pull-down (bridging); details: BLI: 20 mM Tris-HCl pH 6.8, 100 mM KCl, 1 mM EDTA, 0.05% Tween-20, 30°C; pull-down: 10 mM HEPES pH 7.6, 100 mM KCl, 2.5 mM MgCl2, 0.1 mg/mL BSA, room …
T4 sequence: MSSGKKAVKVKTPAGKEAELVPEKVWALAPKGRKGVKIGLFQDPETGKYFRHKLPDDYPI

rCren7 [2] = target: T5, rCren7 (UniProt C3NHU3 1-60); assay: DNA-cellulose pull-down (bridging); details: dsDNA-cellulose, 2.5 mM MgCl2, BLI: 20 mM Tris-HCl pH 6.8, 100 mM KCl, 1 mM EDTA, 0.05% Tween-20, 30°C, pull-down: 10 mM HEPES pH 7.6, 100 mM KCl, 2.5 mM MgCl2, 0.1 mg/mL BSA, room …
T5 sequence: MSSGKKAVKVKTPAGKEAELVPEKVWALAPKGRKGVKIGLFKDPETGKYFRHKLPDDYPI

Cren7 K24Q K24Q = target: T6, Cren7 K24Q K24Q (UniProt C3NHU3); assay: DNA-cellulose pull-down (bridging); details: BLI: 20 mM Tris-HCl pH 6.8, 100 mM KCl, 1 mM EDTA, 0.05% Tween-20, 30°C; pull-down: 10 mM HEPES pH 7.6, 100 mM KCl, 2.5 mM MgCl2, 0.1 mg/mL BSA, room …
T6 sequence: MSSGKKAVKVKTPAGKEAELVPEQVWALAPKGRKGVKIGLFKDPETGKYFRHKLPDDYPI

[3] = tested on: Sis7dWT (native, methylated) (Sulfolobus islandicus E234); assay: BLI; details: BLI: 20 mM Tris-HCl pH 6.8, 100 mM KCl, 1 mM EDTA, 0.05% Tween-20, 30°C; pull-down: 10 mM HEPES pH 7.6, 100 mM KCl, 2.5 mM MgCl2, 0.1 mg/mL BSA, room …
[4] = tested on: Sis7dΔaKMT (native, unmodified) (Sulfolobus islandicus ΔaKMT); assay: BLI; details: BLI: 20 mM Tris-HCl pH 6.8, 100 mM KCl, 1 mM EDTA, 0.05% Tween-20, 30°C; pull-down: 10 mM HEPES pH 7.6, 100 mM KCl, 2.5 mM MgCl2, 0.1 mg/mL BSA, room …
rSis7d = assay: BLI; details: BLI: 20 mM Tris-HCl pH 6.8, 100 mM KCl, 1 mM EDTA, 0.05% Tween-20, 30°C; pull-down: 10 mM HEPES pH 7.6, 100 mM KCl, 2.5 mM MgCl2, 0.1 mg/mL BSA, room …
Cren7 K42Q = target: T7, Cren7 K42Q (UniProt C3NHU3 1-60, K42Q); assay: BLI; BLI: 20 mM Tris-HCl pH 6.8, 100 mM KCl, 1 mM EDTA, 0.05% Tween-20, 30°C; pull-down: 10 mM HEPES pH 7.6, 100 mM KCl, 2.5 mM MgCl2, 0.1 mg/mL BSA, room temperature; details: protein: recombinant; label: 5' biotin on strand 1; blunt
T7 sequence: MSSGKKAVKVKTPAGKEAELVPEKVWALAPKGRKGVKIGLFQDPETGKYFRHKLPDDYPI

Cren7 K48Q = target: T8, Cren7 K48Q (UniProt C3NHU3 1-60, K48Q); assay: as above; details: protein: recombinant; label: 5' biotin on strand 1; blunt
T8 sequence: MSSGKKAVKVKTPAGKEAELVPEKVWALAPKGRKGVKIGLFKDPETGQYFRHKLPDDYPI

Cren7 K24Q = target: T9, Cren7 K24Q (UniProt C3NHU3 1-60, K24Q); assay: as above; details: protein: recombinant; label: 5' biotin on strand 1; blunt
T9 sequence: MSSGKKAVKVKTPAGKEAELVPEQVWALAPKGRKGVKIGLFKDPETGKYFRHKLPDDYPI

Cren7 K31Q = target: T10, Cren7 K31Q (UniProt C3NHU3 1-60, K31Q); assay: as above; details: protein: recombinant; label: 5' biotin on strand 1; blunt
T10 sequence: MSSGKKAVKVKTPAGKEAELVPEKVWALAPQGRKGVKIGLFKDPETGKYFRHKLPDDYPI

rCren7 [5] = target: T5, rCren7; assay: as above; details: protein: recombinant; label: 5' biotin on strand 1; blunt

For pBR322, the binding signal (Cren7 K48Q K48Q) was < 10 % of rCren7, the binding signal (Cren7 K31Q K31Q) was < 10 % of rCren7 and the binding signal (% (barely detected)) [1] was less than 10. The binding signal (Cren7 K42Q K42Q) was < 10 % of rCren7, the binding signal (% input pulled down) (rCren7 [2]; 5 uM protein) was 18 and the binding signal (% input pulled down) (rCren7 [2]; 10 uM protein) was 35. The binding signal (Cren7 K24Q K24Q) was < 10 % of rCren7.

Work on “TAGAGCCCTAGTCTTCCAAACTAGCTACGC (double strand) [D30]” yielded a Kd [3] of 1640 nM, a Kd [4] of 1370 nM and a Kd (rSis7d) of 1040 nM.

B1: D30 (dsDNA)
DNA 1: TAGAGCCCTAGTCTTCCAAACTAGCTACGC
DNA 2: GCGTAGCTAGTTTGGAAGACTAGGGCTCTA
B1 gave a Kd (Cren7 K42Q) of 1120 nM, a Kd (Cren7 K48Q) of 199 nM and a Kd (Cren7 K24Q) of 217 nM. It also gave a Kd (Cren7 K31Q) of 103 nM and a Kd (rCren7 [5]) of 125 nM.

Reference: PMC8927968, “Lysine Methylation Modulates the Interaction of Archaeal Chromatin Protein Cren7 With DNA”
